# Ends that are not written are not given here.
# Legend:
# sHLA-E*01:03 = target: T1, sHLA-E*01:03 (Homo sapiens, UniProt P13747); experiment: Identification of peptides eluted from soluble HLA-E of CMV-infected vs uninfected U-373MG cells by immunoaffinity purification and LC-MS/MS; format: binding
# T1 construct: A soluble construct of HLA-E*01:03 was constructed by removing the transmembrane and cytoplasmic domains; expressed in transfected cells; host or cells: human U-373MG cells, uninfected or infected with CMV strain AD169
# CD94-NKG2C = target: T2, CD94-NKG2C (Homo sapiens, UniProt P13747+P26717+Q13241); details: peptide bound to HLA-E; cited from earlier work
# T2 construct: a linker into which cDNA encoding the extracellular domain of type II membrane proteins is inserted; Flag (N); CD8 leader (N); made in house; host or cells: 293T cells for the Fc fusion proteins; mouse RMA-S transfectants for HLA-E and B2M
# CD94-NKG2A = target: T3, CD94-NKG2A (Homo sapiens, UniProt P13747+P26715+Q13241); details: peptide bound to HLA-E; cited from earlier work
# T3 construct: a linker into which cDNA encoding the extracellular domain of type II membrane proteins is inserted; Flag (N); CD8 leader (N); made in house; host or cells: 293T cells for the Fc fusion proteins; mouse RMA-S transfectants for HLA-E and B2M
# [1] = number of spectra found for the HCMV peptide listed as HLA-E ligand (Table 1)
# [2] = number of spectra for the peptide, LC-MS/MS identification of HLA-E ligands (Table 1)
# T3 sequence (P61769 21-119): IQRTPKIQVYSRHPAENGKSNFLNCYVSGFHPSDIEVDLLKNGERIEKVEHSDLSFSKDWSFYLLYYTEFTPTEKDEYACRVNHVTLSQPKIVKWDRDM
# T3 sequence (P26715 94-233): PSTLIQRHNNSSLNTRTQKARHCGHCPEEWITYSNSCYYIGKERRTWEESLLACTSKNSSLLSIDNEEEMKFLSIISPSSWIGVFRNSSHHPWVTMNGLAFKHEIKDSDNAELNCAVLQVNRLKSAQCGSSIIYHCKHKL
# T3 sequence (P13747 22-358): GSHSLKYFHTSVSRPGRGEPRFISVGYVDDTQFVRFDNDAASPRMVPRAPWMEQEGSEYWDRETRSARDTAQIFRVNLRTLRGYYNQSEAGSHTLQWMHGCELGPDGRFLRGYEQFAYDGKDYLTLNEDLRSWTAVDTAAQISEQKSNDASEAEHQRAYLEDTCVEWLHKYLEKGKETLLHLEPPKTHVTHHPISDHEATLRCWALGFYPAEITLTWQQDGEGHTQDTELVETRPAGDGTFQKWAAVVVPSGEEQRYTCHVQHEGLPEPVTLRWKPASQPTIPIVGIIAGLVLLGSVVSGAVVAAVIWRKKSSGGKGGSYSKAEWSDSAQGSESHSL
# T3 sequence (Q13241 32-179): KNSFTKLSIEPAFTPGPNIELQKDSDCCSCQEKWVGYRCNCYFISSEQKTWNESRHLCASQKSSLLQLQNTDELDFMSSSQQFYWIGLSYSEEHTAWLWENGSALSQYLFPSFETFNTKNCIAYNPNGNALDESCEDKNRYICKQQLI
# T2 sequence (Q13241 32-179): as above
# T2 sequence (P61769 21-119, further chain): as the sequence (P61769 21-119) above
# T2 sequence (P13747 22-358): as the sequence (P13747 22-358) above
# T2 sequence (P26717 94-231): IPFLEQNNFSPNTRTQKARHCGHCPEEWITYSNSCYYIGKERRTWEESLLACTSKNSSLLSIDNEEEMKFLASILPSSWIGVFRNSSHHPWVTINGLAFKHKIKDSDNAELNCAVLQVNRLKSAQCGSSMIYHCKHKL
Sequence,# Spec (sHLA-E*01:03; [1]),other results
ARERGEFGDEDEEQENDGEPR (21),351,–
VTVEQPSTSAD (13),30,–
DDDVWTSGSDSDEELVTTER (87),396,–
PTYDELPSRPPQ (4),730,–
VRTAADISSTLRSVPAPRPSPISTA (68),3,–
VRTAADISSTLRSVPAPRPSP (66),3,–
VWTSGSDSDEELVTTE (91),399,–
VTGGGAMAGASTSAGR,–,# Spec (sHLA-E*01:03; [2]): 420
PNTYIHKTETD (60),221,–
VMAPRTLFL [HLA-G leader peptide],–,binding of HLA-E/peptide to CD94-NKG2C (CD94-NKG2C): bind both CD94-NKG2A and CD94-NKG2C (albeit with low affinity); binding of HLA-E/peptide to CD94-NKG2A (CD94-NKG2A): bind both CD94-NKG2A and CD94-NKG2C (albeit with low affinity)
VLGPISGHVLK (79),14,–
SSVSGVRTPR (17) (also: PTM present),2,–
SASSATACTSGVMTR,–,# Spec (sHLA-E*01:03; [2]): 439
VLGPISGHV (78),14,–
VTFEFVPNTK (46),419,–
PATLTAYDK (57),572,–

Sequence,# Spec (sHLA-E*01:03; [1]),other results
SDEELVTTER,–,# Spec (sHLA-E*01:03; [2]): 406
SASSATACTSGVMT,–,# Spec (sHLA-E*01:03; [2]): 439
SQKSKRSVTVEQPSTSAD (8),23,–
APSQKSKRSVTVEQPSTSADGSN (7),21,–
GPGLDNDLMNEPMGLGGLGGGGGGGGKKH (43),312,–
SVPAPRPSPISTAST (72),$35,–
RSVTVEQPSTSAD (9),28,–
MDGDVRTAADISSTER (63) (MDGDVRTAADISSTLR),519,–
AQGDDDVWTSGSDSDEELVTTER (85),393,–
PVTGEDTFSAHGKSD (52),615,–
HRHLPVAD (82),139,–
SVTVEQPSTSA (12),29,–
EAGGVGGSSGGGGGSGLLPAKRS (55),1211,–
VRTAADISSTLR (67),2,–
ARERGEFGDEDEEQEND (22),351,–
